Experimental data taken from the supplement of paper PMC9732359.
± gives the uncertainty stated by the source.

Assay: protein stability index of a GFP-peptide fusion (yeast GPS) (PSI 1-4); higher = more stable; sorted into four equal gates, so the index is relative within each strain
In short: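 Mid-log yeast cultures in leucine-free medium, carrying a pooled plasmid library, were sorted into four equal gates by their GFP/Cherry fluorescence ratio. Each plasmid expressed Cherry along with GFP fused upstream of a tiled 17-residue yeast protein peptide. Plasmids recovered from each gate were PCR-amplified and Illumina-sequenced, with reads assigned to strains by barcodes. The protein stability index was obtained by summing each gate's read frequency weighted by its gate number.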

VKRRRDMLEHINLAMNE [SRB4]
protein stability index (doa10∆): 1.3 ± 0.096 | protein stability index (pdr5∆): 1.33 ± 0.12 | protein stability index (san1∆): 1.14 ± 0.19 | protein stability index (ubr1∆): 1.2 ± 0.078

VARFLHFNGIRRLDALV [ITC1]
protein stability index (doa10∆): 3.44 ± 0.16 | protein stability index (pdr5∆): 3.45 ± 0.11 | protein stability index (san1∆): 3.41 ± 0.058 | protein stability index (ubr1∆): 3.35 ± 0.08

YNGFIDIFSNLSSDDLL [YCS4]
protein stability index (doa10∆): 3.16 ± 0.044 | protein stability index (pdr5∆): 2.99 ± 0.066 | protein stability index (san1∆): 3.28 ± 0.056 | protein stability index (ubr1∆): 3.08 ± 0.037

VQDKDTLSNAERAKNVN [GAL11]
protein stability index (pdr5∆): 2.71 ± 0.23 | protein stability index (san1∆): 2.71 ± 0.18 | protein stability index (ubr1∆): 2.91 ± 0.12

NNTKAGRRKTWKRQNTL [RPL15A]
protein stability index (doa10∆): 2.65 ± 0.059 | protein stability index (pdr5∆): 2.95 ± 0.07 | protein stability index (san1∆): 2.44 ± 0.083 | protein stability index (ubr1∆): 2.87 ± 0.12

FGRKKRKGGPATAEKLP [RPT2]
protein stability index (doa10∆): 3.56 ± 0.089 | protein stability index (pdr5∆): 3.28 ± 0.12 | protein stability index (san1∆): 3.24 ± 0.075 | protein stability index (ubr1∆): 3.34 ± 0.11

PDVKSLVQLSTMETKTL [SIR4]
protein stability index (doa10∆): 2.92 ± 0.071 | protein stability index (pdr5∆): 2.83 ± 0.073 | protein stability index (san1∆): 2.81 ± 0.052 | protein stability index (ubr1∆): 2.98 ± 0.063

GTSKYLINGHRAPQQSV [SMC2]
protein stability index (doa10∆): 2.13 ± 0.054 | protein stability index (pdr5∆): 2.36 ± 0.047 | protein stability index (san1∆): 2.27 ± 0.076 | protein stability index (ubr1∆): 2.22 ± 0.052

DPGRYNKVCRIEAASTT [RPB8]
protein stability index (doa10∆): 2.41 ± 0.093 | protein stability index (pdr5∆): 2.53 ± 0.099 | protein stability index (san1∆): 2.48 ± 0.1 | protein stability index (ubr1∆): 2.73 ± 0.082

DMDAESNESQNGKDSEI [SMC3]
protein stability index (doa10∆): 3.42 ± 0.12 | protein stability index (pdr5∆): 3.22 ± 0.096 | protein stability index (san1∆): 2.89 ± 0.1 | protein stability index (ubr1∆): 3.31 ± 0.038

RNDKTLELMDSKKTGQF [POP1]
protein stability index (doa10∆): 3.34 ± 0.069 | protein stability index (pdr5∆): 3.44 ± 0.06 | protein stability index (san1∆): 3.18 ± 0.064 | protein stability index (ubr1∆): 3.37 ± 0.05

REKALNEEAEARRLKNR [RPL19A]
protein stability index (doa10∆): 3.21 ± 0.075 | protein stability index (pdr5∆): 3.15 ± 0.11 | protein stability index (san1∆): 3.09 ± 0.095 | protein stability index (ubr1∆): 3.24 ± 0.066

STGPTGAVSLNPSITRL [RRP4]
protein stability index (doa10∆): 2.92 ± 0.057 | protein stability index (pdr5∆): 3.05 ± 0.074 | protein stability index (san1∆): 2.88 ± 0.042 | protein stability index (ubr1∆): 3.06 ± 0.05

TDLKKIIKANQLILSDV [RET1]
protein stability index (doa10∆): 2.57 ± 0.055 | protein stability index (pdr5∆): 2.34 ± 0.053 | protein stability index (san1∆): 2.48 ± 0.053 | protein stability index (ubr1∆): 2.39 ± 0.05

KTAMAELALLNHWRQNK [BRR2]
protein stability index (doa10∆): 1.39 ± 0.082 | protein stability index (pdr5∆): 1.79 ± 0.12 | protein stability index (san1∆): 1.26 ± 0.17 | protein stability index (ubr1∆): 1.88 ± 0.062

IGDVDGLIVNPVKVSGT [POP5]
protein stability index (doa10∆): 2.73 ± 0.048 | protein stability index (pdr5∆): 3.02 ± 0.046 | protein stability index (san1∆): 2.66 ± 0.035 | protein stability index (ubr1∆): 2.64 ± 0.035

LITSEMFDAFVSFYFED [SIN4]
protein stability index (doa10∆): 1.94 ± 0.1 | protein stability index (pdr5∆): 2.59 ± 0.061 | protein stability index (san1∆): 1.87 ± 0.093 | protein stability index (ubr1∆): 2.93 ± 0.081

SNSNVTNPSSIFGGAGG [YOR098C/NUP1]
protein stability index (doa10∆): 2.89 ± 0.049 | protein stability index (pdr5∆): 2.77 ± 0.05 | protein stability index (san1∆): 2.29 ± 0.052 | protein stability index (ubr1∆): 2.87 ± 0.045

STTFADCPVVPADPDIL [RPC40]
protein stability index (doa10∆): 2.8 ± 0.071 | protein stability index (pdr5∆): 2.87 ± 0.084 | protein stability index (san1∆): 2.41 ± 0.11 | protein stability index (ubr1∆): 2.43 ± 0.094

DSLSVPKVSAGDSGISP [SIR4]
protein stability index (doa10∆): 3.24 ± 0.12 | protein stability index (pdr5∆): 3.24 ± 0.11 | protein stability index (san1∆): 3.02 ± 0.084 | protein stability index (ubr1∆): 3.18 ± 0.058

SQIIARNEEILRDIGEC [SMC2]
protein stability index (doa10∆): 2.79 ± 0.077 | protein stability index (pdr5∆): 2.46 ± 0.091 | protein stability index (san1∆): 2.85 ± 0.062 | protein stability index (ubr1∆): 3.07 ± 0.084

WRVREASTSALLQLIQS [ECM29]
protein stability index (doa10∆): 1.16 ± 0.13 | protein stability index (pdr5∆): 1.41 ± 0.12 | protein stability index (san1∆): 1.04 ± 0.22

DTAGEESQQQDESLKDE [SWI3]
protein stability index (doa10∆): 3.36 ± 0.2 | protein stability index (san1∆): 3.13 ± 0.16 | protein stability index (ubr1∆): 3.61 ± 0.29

AEQSFDQQSPWLLRLEL [RPO21]
protein stability index (doa10∆): 3 ± 0.052 | protein stability index (pdr5∆): 3.14 ± 0.051 | protein stability index (san1∆): 3.1 ± 0.039 | protein stability index (ubr1∆): 3.11 ± 0.04

FTTLLESKQDGLSILFL [YML103C/NUP188]
protein stability index (doa10∆): 2.53 ± 0.097 | protein stability index (pdr5∆): 2.68 ± 0.12 | protein stability index (san1∆): 2.56 ± 0.096 | protein stability index (ubr1∆): 3 ± 0.14

TLGKLSTSVGWKYEDVV [RPL16B]
protein stability index (doa10∆): 2.82 ± 0.062 | protein stability index (pdr5∆): 2.42 ± 0.069 | protein stability index (san1∆): 2.71 ± 0.11 | protein stability index (ubr1∆): 2.81 ± 0.059

SFDAVSDSIELLKQYPK [YJR042W/NUP85]
protein stability index (doa10∆): 2.86 ± 0.083 | protein stability index (pdr5∆): 3.16 ± 0.085 | protein stability index (san1∆): 2.56 ± 0.11 | protein stability index (ubr1∆): 2.59 ± 0.087

DKKASMIISGSRDKTIK [ASC1]
protein stability index (doa10∆): 2.2 ± 0.17 | protein stability index (pdr5∆): 2.54 ± 0.092 | protein stability index (san1∆): 2.63 ± 0.096 | protein stability index (ubr1∆): 1.96 ± 0.079

SYYSREQDALFITRLAQ [RPN1]
protein stability index (doa10∆): 1.71 ± 0.044 | protein stability index (pdr5∆): 1.85 ± 0.045 | protein stability index (san1∆): 1.65 ± 0.078 | protein stability index (ubr1∆): 1.8 ± 0.042

NKIIPNVGLCITIYDLL [RPC25]
protein stability index (doa10∆): 1.43 ± 0.082 | protein stability index (pdr5∆): 1.29 ± 0.068 | protein stability index (san1∆): 1.29 ± 0.13 | protein stability index (ubr1∆): 1.5 ± 0.067

HPTTIESLREIPYGPDF [SEC65]
protein stability index (doa10∆): 3.06 ± 0.069 | protein stability index (pdr5∆): 3.17 ± 0.06 | protein stability index (san1∆): 3.01 ± 0.058 | protein stability index (ubr1∆): 2.99 ± 0.049

SDLNLTDRQKKLLGVDM [YLR018C/POM34]
protein stability index (doa10∆): 3.17 ± 0.052 | protein stability index (pdr5∆): 3.09 ± 0.055 | protein stability index (san1∆): 3.19 ± 0.039 | protein stability index (ubr1∆): 3.23 ± 0.039

FIRLPHWPLNWYLILSI [RGR1]
protein stability index (doa10∆): 1.46 ± 0.077 | protein stability index (pdr5∆): 1.4 ± 0.064 | protein stability index (san1∆): 1.33 ± 0.23 | protein stability index (ubr1∆): 1.37 ± 0.062

PKIDEDDTWYNLTEFVQ [AAR2]
protein stability index (doa10∆): 3.17 ± 0.088 | protein stability index (pdr5∆): 3.23 ± 0.086 | protein stability index (san1∆): 3.07 ± 0.049 | protein stability index (ubr1∆): 3.07 ± 0.057

LEKFLQGRDTSKLPDPE [SRP72]
protein stability index (doa10∆): 2.76 ± 0.11 | protein stability index (pdr5∆): 2.2 ± 0.06 | protein stability index (san1∆): 2.38 ± 0.11 | protein stability index (ubr1∆): 2.77 ± 0.051

TLKPTFSFTEPAQKDSS [YOR098C/NUP1]
protein stability index (doa10∆): 2.78 ± 0.059 | protein stability index (pdr5∆): 3.05 ± 0.067 | protein stability index (san1∆): 2.99 ± 0.065 | protein stability index (ubr1∆): 2.53 ± 0.037

YSYTTIVLSDQTQEFFL [YJL039C/NUP192]
protein stability index (doa10∆): 2.79 ± 0.077 | protein stability index (pdr5∆): 2.92 ± 0.068 | protein stability index (san1∆): 2.93 ± 0.081 | protein stability index (ubr1∆): 2.82 ± 0.062

FEQCCKEKKELQMRLKE [YIL149C/MLP2]
protein stability index (pdr5∆): 3.11 ± 0.29

LPLQPIEIDYTVRVDKA [SNF12]
protein stability index (doa10∆): 2.39 ± 0.061 | protein stability index (pdr5∆): 2.19 ± 0.055 | protein stability index (san1∆): 2.08 ± 0.064 | protein stability index (ubr1∆): 2.27 ± 0.045

RNFKKANLVNKESDLLE [BRN1]
protein stability index (doa10∆): 1.7 ± 0.099 | protein stability index (pdr5∆): 1.58 ± 0.051 | protein stability index (san1∆): 1.64 ± 0.11 | protein stability index (ubr1∆): 1.43 ± 0.053

LKTRYVGRQDPKKHLSE [RPN11]
protein stability index (doa10∆): 3.08 ± 0.087 | protein stability index (pdr5∆): 3.11 ± 0.18 | protein stability index (san1∆): 3.3 ± 0.078 | protein stability index (ubr1∆): 3.26 ± 0.12

KTKAMVPPINCIFNFLQ [SME1]
protein stability index (doa10∆): 1.65 ± 0.042 | protein stability index (pdr5∆): 1.65 ± 0.037 | protein stability index (san1∆): 1.97 ± 0.07 | protein stability index (ubr1∆): 2.12 ± 0.036

MTLEDNNVTSNPSEFTP [SSN2]
protein stability index (doa10∆): 2.75 ± 0.069 | protein stability index (pdr5∆): 3.03 ± 0.067 | protein stability index (san1∆): 2.92 ± 0.068 | protein stability index (ubr1∆): 3.16 ± 0.064

VFVDGEANWPLPVNIRR [RPO21]
protein stability index (doa10∆): 2.99 ± 0.081 | protein stability index (pdr5∆): 3.06 ± 0.085 | protein stability index (san1∆): 3.12 ± 0.13 | protein stability index (ubr1∆): 3.13 ± 0.072

SIHAHGSTDVGYYLSLG [PUP1]
protein stability index (doa10∆): 2.62 ± 0.069 | protein stability index (pdr5∆): 2.79 ± 0.069 | protein stability index (san1∆): 2.91 ± 0.065 | protein stability index (ubr1∆): 2.24 ± 0.053

LLVPASDLINKDLVKNN [FAS1]
protein stability index (doa10∆): 1.76 ± 0.086 | protein stability index (pdr5∆): 2.95 ± 0.097 | protein stability index (san1∆): 3.11 ± 0.12 | protein stability index (ubr1∆): 2.83 ± 0.11

LRDYTTVPRIVQLLSKS [RPN2]
protein stability index (doa10∆): 1.62 ± 0.046 | protein stability index (pdr5∆): 1.98 ± 0.053 | protein stability index (san1∆): 2.26 ± 0.1 | protein stability index (ubr1∆): 1.73 ± 0.045

SEETQFKYVEDRFPLKL [ITC1]
protein stability index (doa10∆): 3.47 ± 0.13 | protein stability index (pdr5∆): 3.09 ± 0.13 | protein stability index (san1∆): 3.27 ± 0.09 | protein stability index (ubr1∆): 3.01 ± 0.14

AAMVPFIKFKLIQQVPP [CDC53]
protein stability index (doa10∆): 2.12 ± 0.062 | protein stability index (pdr5∆): 1.92 ± 0.07 | protein stability index (san1∆): 2.17 ± 0.1 | protein stability index (ubr1∆): 2.07 ± 0.068

DKLLDPTTVSYIFCISR [SCL1]
protein stability index (doa10∆): 2.97 ± 0.045 | protein stability index (pdr5∆): 3.1 ± 0.06 | protein stability index (san1∆): 3.181 ± 0.029 | protein stability index (ubr1∆): 3.22 ± 0.051

KQLQQPKSSPLKKNNYN [SIR4]
protein stability index (doa10∆): 3.03 ± 0.089 | protein stability index (pdr5∆): 2.98 ± 0.068 | protein stability index (san1∆): 3.1 ± 0.039 | protein stability index (ubr1∆): 3.07 ± 0.039

KINDESSIDKKSSILTV [YML103C/NUP188]
protein stability index (doa10∆): 2.35 ± 0.062 | protein stability index (pdr5∆): 2.68 ± 0.067 | protein stability index (san1∆): 2.56 ± 0.059 | protein stability index (ubr1∆): 2.52 ± 0.056

SMVLFFVCLSCSHIFTS [RPB9]
protein stability index (doa10∆): 1.55 ± 0.073 | protein stability index (pdr5∆): 1.4 ± 0.081 | protein stability index (san1∆): 1.43 ± 0.14 | protein stability index (ubr1∆): 1.67 ± 0.095
